Laboratory results from the supplement of paper PMC10126150.
± gives the standard deviation of the averaged measurements.

Tested on: ATP
Test: switch fluorescence ratio, 500 uM ATP over buffer (Cy3 cluster intensity, sum of 5 cycles each) (fold (ratio)); higher = stronger signal-on switching upon ATP binding; sequences stand for … in TCGTCGGCAGCGTCAGATGTGTATAAGAGACAGTTTTTTTTTTTTTTTTTTTTTTTTT…TC
Conditions: aptamer strand: ATP DNA aptamer (quencher-CACCTGGGGGAGTATTGCGGAGGAAGG + anchor), 100 nM annealed; ATP concentration: 500 uM
Method in brief: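 Cy3-labelled switching-strand clusters on a modified Illumina MiSeq flow-cell were annealed to 100 nM quencher-labelled ATP aptamer and imaged first in selection buffer, then after 15 min with 500 uM ATP at 22 °C. NaOH stripping and re-annealing separated each of five buffer/ATP cycles, and clusters outside 100-1000 RFU were excluded. The fluorescence ratio sums target-cycle Cy3 intensity over buffer-cycle Cy3 intensity per cluster and averages it per switch-domain sequence.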
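Also: ATP exposure 15 min at 22 °C before imaging.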

Sequence	switch fluorescence ratio
TGGGTTTTTT	1.01 ± 0.048
CAGTTAGCAG	1.06 ± 0.025
ATTTTATAGT	1 ± 0.055
CATTTTTTGT	1.027 ± 0.0052
TTTGTAGGCA	0.989 ± 0.011
GGGGTTACAG	1.01 ± 0.013
GCGGGGGGCG	1.01 ± 0.041
ATTACATGTA	0.9871 ± 0.0098
ATGAGGTGAT	1.057 ± 0.0041
TTTAAATTTA	1.01 ± 0.028
CCATTAGTTT	0.987 ± 0.018
CAAAGGGGTG	1.03 ± 0.044
CTCCTAAATG	1.19 ± 0.015
TATATCGGAC	1 ± 0.014
TAAAGAGGTG	1.11 ± 0.053
TGAAAAATGG	1.01 ± 0.031
TTCAATGAGG	0.973 ± 0.052
TTGTTATTAG	1.03 ± 0.047
GTCAATTGAT	0.9924 ± 0.0074
GGGGGGATTA	0.992 ± 0.035
TTACGGGTGC	1.19 ± 0.033
GCAAAATAAA	1.05 ± 0.12
ATTAAATGGG	0.976 ± 0.036
ATGTAACTAT	1.03 ± 0.021
GCCTCTATTT	0.968 ± 0.019

Sequence	switch fluorescence ratio
AAAGTGGCGT	0.984 ± 0.08
AATCAGAGTG	1.01 ± 0.03
AAGATACGAA	1.04 ± 0.019
CCGCGGCTGG	1.154 ± 0.01
TATGGCTCTA	0.9731 ± 0.00019
GTGAGGGACG	0.999 ± 0.081
ACTGGGATCA	1.03 ± 0.02
TATCGGGGTA	1.002 ± 0.0047
TTGGGCCCAA	1 ± 0.041
CCAGGTAGG	1.24 ± 0.068
CCTCATGGCA	2.11 ± 0.17
TACTCAGTGG	1.01 ± 0.022
TTTGGTTCTC	0.977 ± 0.012
TAGTTGATTC	1.01 ± 0.067
TCCTCGTCTC	1.69 ± 0.038
AGAACAGCAT	1.01 ± 0.021
GGAATGTTGC	0.9733 ± 0.0039
TGGTTTATTC	0.986 ± 0.051
AAGCATGTTG	0.966 ± 0.021
AGATCAAGGT	1.02 ± 0.013
CGGTTCGTGG	1.004 ± 0.0068
AGAGGCCAAC	1.002 ± 0.0062
CGGTCCTGAA	1.03 ± 0.002
GGGGGATGGG	0.998 ± 0.032
GAGGGTATCG	0.984 ± 0.039

Sequence	switch fluorescence ratio
TGTTAGTGTT	1.03 ± 0.029
TGGGGTGGGT	1 ± 0.039
GACAGAGGGC	0.96 ± 0.062
AGGGTTTTCG	0.972 ± 0.022
ATTATGGACG	1.06 ± 0.073
TTTCACGGGA	1.07 ± 0.066
TTAAGGGCAA	1.06 ± 0.013
TCGTATAGAG	1 ± 0.017
TGGAATTTGG	1 ± 0.038
TGGTTATTAC	1.037 ± 0.0094
AGTAGTGGGG	0.994 ± 0.013
CCTATAATAG	1.17 ± 0.064
CTAGGTACTT	1.03 ± 0.037
ACGCCGTCGA	1.035 ± 0.0099
TGGGAATGCC	0.994 ± 0.025
AAGAAGGACG	1 ± 0.033
GGGGGTCCTA	0.977 ± 0.0099
ATCGTATATG	0.972 ± 0.043
GGGGAATAAG	1.01 ± 0.053
TAGCTTTTTT	1.002 ± 0.0045
TGTGGGACGT	0.952 ± 0.01
TTATTCATGT	0.984 ± 0.011
TCGCTGGTTG	0.996 ± 0.022
AGATACATAT	1.05 ± 0.0056
TGGGACGCCT	1.06 ± 0.14

Sequence	switch fluorescence ratio
ACGTACCGGC	1.31 ± 0.075
TGGTGGGGGT	0.999 ± 0.028
GCAAGACGTT	1.51 ± 0.045
TCAATGTGCG	1.013 ± 0.01
AAAAGAGCGC	1.08 ± 0.072
ATGGGGTGTC	0.943 ± 0.067
TTTTCGCTAA	1.55 ± 0.96
TCTAAGTATT	1.02 ± 0.026
AGGGGCGTGA	0.99 ± 0.011
CAATTCTGTA	0.997 ± 0.028
AATTTATAGC	0.977 ± 0.034
TCGTACGCTA	3.38 ± 0.084
GTTACAGGTC	1.006 ± 0.0019
ATGTAGTTCC	1.064 ± 0.0022
GGATTTACGT	1.02 ± 0.023
CTTTAATCAA	0.991 ± 0.013
TTTCACGCTC	1.12 ± 0.21
TTGTGGCAAC	1.24 ± 0.3
TTGGTTAAGA	0.999 ± 0.04
TGTTGAGTGT	0.962 ± 0.017
TTGCTTACGG	1.02 ± 0.013
CAAATAAGTA	1.01 ± 0.033
CTAATATCAC	1.02 ± 0.012
AGAGTTGTGG	0.982 ± 0.024
CATTTTGTAT	0.998 ± 0.013
